Measured values reported in article PMC9399855 (2022).

Experiments:
[1] = biological target: T1, hybrid insulin peptide 6.3HIP: insulin B-chain B13-19 joined to ProSAAS 219-225 peptide on I-Ag7 (mouse); experiment: cytokine release
T1 peptide: EALYLVCSVDQDLG

[2] = biological target: T2, 6.3HIP 10D>R (mutant of B13-19/ProSAAS 219-225) peptide on I-Ag7 (mouse); experiment: cytokine release
T2 peptide: EALYLVCSVRQDLG

[3] = biological target: T3, 6.3HIP -1-14 (6.3HIP with a valine added at the N-terminus); RESTORED: the article prints …, which lacks the … (mouse); experiment: cytokine release
T3 peptide: VEALYLVCSVDQDLG

[4] = biological target: T4, 6.3HIP 2-14 (N-terminal truncation of the 6.3HIP) peptide on I-Ag7 (mouse); experiment: cytokine release
T4 peptide: ALYLVCSVDQDLG

[5] = biological target: T5, 6.3HIP 12D>R (mutant of B13-19/ProSAAS 219-225) peptide on I-Ag7 (mouse); experiment: cytokine release
T5 peptide: EALYLVCSVDQRLG

[6] = biological target: T6, 6.3HIP 1-11: insulin B-chain B13-19 joined to ProSAAS 219-222 peptide on I-Ag7 (mouse); experiment: multimer staining
T6 peptide: EALYLVCSVDQ

B1: PD12-4.4 (TCR)
alpha TRAV5D-4 TRAJ53 CDR3: CAASASGGSNYKLTF
beta TRBV5 CDR3: CASSQDTNTGQLYF
binding result [1]: recognises | binding result [2]: no recognition | binding result [3]: recognises | binding result [4]: no recognition | binding result [5]: recognises | binding result [6]: recognises
